This assay has as its target T1, soluble human GPC3 (human, UniProt P51654 25-563, limits assumed).
T1 construct: soluble human GPC3 as analyte; also called glypican 3
In words: SPR (Biacore), soluble human GPC3.

We go through 44 molecules from patent US20210388110A1 (published 2021).

Where a chain is given by its changes, count along the chain named.

T1 sequence (P51654 other isoform, or with tags, fused parts or gaps limits assumed, form in doubt): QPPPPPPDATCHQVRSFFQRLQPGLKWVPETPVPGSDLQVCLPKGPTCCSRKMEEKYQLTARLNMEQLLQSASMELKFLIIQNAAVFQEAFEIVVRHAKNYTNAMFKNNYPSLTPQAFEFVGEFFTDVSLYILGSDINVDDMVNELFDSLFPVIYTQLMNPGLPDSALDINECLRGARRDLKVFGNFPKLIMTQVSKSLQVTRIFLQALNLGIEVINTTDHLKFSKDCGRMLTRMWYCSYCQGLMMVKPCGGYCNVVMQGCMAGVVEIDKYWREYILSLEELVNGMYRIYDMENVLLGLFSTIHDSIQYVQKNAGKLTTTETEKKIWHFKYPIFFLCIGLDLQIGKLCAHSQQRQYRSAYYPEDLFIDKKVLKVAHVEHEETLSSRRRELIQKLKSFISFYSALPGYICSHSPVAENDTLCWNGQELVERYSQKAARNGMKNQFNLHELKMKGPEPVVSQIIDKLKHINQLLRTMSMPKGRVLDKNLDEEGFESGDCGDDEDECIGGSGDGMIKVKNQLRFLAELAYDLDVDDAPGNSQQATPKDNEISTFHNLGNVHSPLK

B1: H0610-G1dh/none-Hi-Kn010G3/L0152-k0 (antibody, human IgG1, kappa)
heavy: not shown
chain: EPKSSDKTHTCPPCPAPELLGGPSVFLFPPKPKDTLMISRTPEVTCVVVDVSHEDPEVKFNWYVDGVEVHNAKTKPREEQYNSTYRVVSVLTVLHQDWLNGKEYKCKVSNKALPAPIEKTISKAKGQPREPQVCTLPPSRDELTKNQVSLWCLVKGFYPSDIAVEWESNGQPENNYKTTPPVLDSDGSFFLYSKLTVDKSRWQQGNVFSCSVMHEALHNRYTQKSLSLSP
light: DIVMTQSPLSLPVTPGEPASISCRSSQSLVHSNRNTYLHWYQQKPGQAPRLLIYKVSNRFSGVPDRFSGSGSGTDFTLKISRVEAEDVGVYYCFQGTQVPYTFGQGTKLEIKRTVAAPSVFIFPPSDEQLKSGTASVVCLLNNFYPREAKVQWKVDNALQSGNSQESVTEQDSKDSTYSLSSTLTLSKADYEKHKVYACEVTHQGLSSPVTKSFNRGEC
notes: single-arm (one Fab)
In turn, B1 yielded a dissociation constant (Kd) of 2.36 nM.

B2: H0610-G1dh/none-Hi-Kn010G3/L0186-k0 (antibody, human IgG1, kappa)
heavy: not shown
chain: B1 chain
light: B1 light with F94G, V99W
notes: single-arm (one Fab)
As to B2, binding was characterised by a dissociation constant (Kd) of 1.08 nM.

B3: H0610-G1dh/none-Hi-Kn010G3/L0223-k0 (antibody, human IgG1, kappa)
heavy: not shown
chain: B1 chain
light: B1 light with L29P, L38I, F60L, F94Y
notes: single-arm (one Fab)
In turn, B3 yielded an equilibrium dissociation constant (Kd) of 0.475 nM.

B4: H0610-G1dh/none-Hi-Kn010G3/L0211-k0 (antibody, human IgG1, kappa)
heavy: not shown
chain: B1 chain
light: B1 light with S28P, L29P, F94Y
notes: single-arm (one Fab)
For B4, binding was put at a Kd of 0.647 nM.

B5: H0610-G1dh/none-Hi-Kn010G3/L0217-k0 (antibody, human IgG1, kappa)
heavy: not shown
chain: B1 chain
light: B1 light with S25P, S61R, F94G
notes: single-arm (one Fab)
In the case of B5, the affinity, expressed as Kd, was 1.79 nM.

B6: H0610-G1dh/none-Hi-Kn010G3/L0160-k0 (antibody, human IgG1, kappa)
heavy: not shown
chain: B1 chain
light: B1 light with F94T
notes: single-arm (one Fab)
Regarding B6, the Kd stood at 2.12 nM.

B7: H0610-G1dh/none-Hi-Kn010G3/L0227-k0 (antibody, human IgG1, kappa)
heavy: not shown
chain: B1 chain
light: B1 light with L29P, L38I, F94L
notes: single-arm (one Fab)
B7: binding was characterised by a dissociation constant (Kd) of 0.408 nM.

B8: H0610-G1dh/none-Hi-Kn010G3/L0214-k0 (antibody, human IgG1, kappa)
heavy: not shown
chain: B1 chain
light: B1 light with S28P, L29P, S61R, F94G
notes: single-arm (one Fab)
The molecule B8 displayed a Kd of 0.657 nM.

B9: H0610-G1dh/none-Hi-Kn010G3/L0204-k0 (antibody, human IgG1, kappa)
heavy: not shown
chain: B1 chain
light: B1 light with L29P, S61R, F94G
notes: single-arm (one Fab)
Consider B9, for which binding was characterised by a dissociation constant (Kd) of 0.727 nM.

B10: H0610-G1dh/none-Hi-Kn010G3/L0230-k0 (antibody, human IgG1, kappa)
heavy: not shown
chain: B1 chain
light: B1 light with L29P, L38I, F94Y, G96T
notes: single-arm (one Fab)
The molecule B10 gave a Kd of 4 nM.

B11: H0610-G1dh/none-Hi-Kn010G3/L0173-k0 (antibody, human IgG1, kappa)
heavy: not shown
chain: B1 chain
light: B1 light with F94G, V99F
notes: single-arm (one Fab)
As for B11, binding was put at a Kd of 2.83 nM.

B12: H0610-G1dh/none-Hi-Kn010G3/L0201-k0 (antibody, human IgG1, kappa)
heavy: not shown
chain: B1 chain
light: B1 light with S28P, L29P, F94G
notes: single-arm (one Fab)
As for B12, binding was put at a Kd of 1.13 nM.

B13: H0610-G1dh/none-Hi-Kn010G3/L0228-k0 (antibody, human IgG1, kappa)
heavy: not shown
chain: B1 chain
light: B1 light with L29P, L38I, F94V
notes: single-arm (one Fab)
Molecule B13 gave a Kd of 0.202 nM.

B14: H0610-G1dh/none-Hi-Kn010G3/L0175-k0 (antibody, human IgG1, kappa)
heavy: not shown
chain: B1 chain
light: B1 light with F94G, V99H
notes: single-arm (one Fab)
B14 came in with a dissociation constant Kd of 3.84 nM.

B15: H0610-G1dh/none-Hi-Kn010G3/L0161-k0 (antibody, human IgG1, kappa)
heavy: not shown
chain: B1 chain
light: B1 light with F94V
notes: single-arm (one Fab)
With B15, binding was put at a Kd of 0.973 nM.

B16: H0610-G1dh/none-Hi-Kn010G3/L0208-k0 (antibody, human IgG1, kappa)
heavy: not shown
chain: B1 chain
light: B1 light with L29P, S61W, F94Y
notes: single-arm (one Fab)
B16: binding was put at a Kd of 0.53 nM.

B17: H0610-G1dh/none-Hi-Kn010G3/L0154-k0 (antibody, human IgG1, kappa)
heavy: not shown
chain: B1 chain
light: B1 light with F94I
notes: single-arm (one Fab)
As to B17, the Kd worked out at 1.01 nM.

B18: H0610-G1dh/none-Hi-Kn010G3/L0215-k0 (antibody, human IgG1, kappa)
heavy: not shown
chain: B1 chain
light: B1 light with S28P, L29P, L38I, F94G
notes: single-arm (one Fab)
B18 came in with an equilibrium dissociation constant (Kd) of 1.64 nM.

B19: H0610-G1dh/none-Hi-Kn010G3/L0224-k0 (antibody, human IgG1, kappa)
heavy: not shown
chain: B1 chain
light: B1 light with L29P, L38I, S61P, F94Y
notes: single-arm (one Fab)
B19 gave an equilibrium dissociation constant (Kd) of 0.243 nM.

B20: H0610-G1dh/none-Hi-Kn010G3/L0168-k0 (antibody, human IgG1, kappa)
heavy: not shown
chain: B1 chain
light: B1 light with F94G, G96T
notes: single-arm (one Fab)
Take B20: the dissociation constant (Kd) worked out at 0.699 nM.

B21: H0610-G1dh/none-Hi-Kn010G3/L0167-k0 (antibody, human IgG1, kappa)
heavy: not shown
chain: B1 chain
light: B1 light with F94G, G96S
notes: single-arm (one Fab)
B21 had a Kd of 0.211 nM.

B22: H0610-G1dh/none-Hi-Kn010G3/L0155-k0 (antibody, human IgG1, kappa)
heavy: not shown
chain: B1 chain
light: B1 light with F94L
notes: single-arm (one Fab)
For B22, binding was characterised by a dissociation constant (Kd) of 1.28 nM.

B23: H0610-G1dh/none-Hi-Kn010G3/L0222-k0 (antibody, human IgG1, kappa)
heavy: not shown
chain: B1 chain
light: B1 light with L29P, L38I, H39Q, F94Y
notes: single-arm (one Fab)
In the case of B23, the Kd was 0.00014 nM.

B24: H0610-G1dh/none-Hi-Kn010G3/L0212-k0 (antibody, human IgG1, kappa)
heavy: not shown
chain: B1 chain
light: B1 light with S25P, L29P, F94Y
notes: single-arm (one Fab)
Consider B24, for which the Kd is 0.994 nM.

B25: H0610-G1dh/none-Hi-Kn010G3/L0237-k0 (antibody, human IgG1, kappa)
heavy: not shown
chain: B1 chain
light: B1 light with S28E, L29P, L38I, F94Y
notes: single-arm (one Fab)
In the case of B25, the Kd turned out to be 1.31 nM.

B26: H0610-G1dh/none-Hi-Kn010G3/L0218-k0 (antibody, human IgG1, kappa)
heavy: not shown
chain: B1 chain
light: B1 light with S61R, F94Y
notes: single-arm (one Fab)
Take B26: the dissociation constant (Kd) was 1.99 nM.

B27: H0610-G1dh/none-Hi-Kn010G3/L0229-k0 (antibody, human IgG1, kappa)
heavy: not shown
chain: B1 chain
light: B1 light with L29P, L38I, F94Y, G96S
notes: single-arm (one Fab)
The molecule B27 showed a Kd of 1.2 nM.

B28: H0610-G1dh/none-Hi-Kn010G3/L0202-k0 (antibody, human IgG1, kappa)
heavy: not shown
chain: B1 chain
light: B1 light with L29P, N35W, F94G
notes: single-arm (one Fab)
Molecule B28 returned a dissociation constant Kd of 1.22 nM.

B29: H0610-G1dh/none-Hi-Kn010G3/L0234-k0 (antibody, human IgG1, kappa)
heavy: not shown
chain: B1 chain
light: B1 light with S28E, L29P, S61R, F94G
notes: single-arm (one Fab)
With B29, the Kd was 0.778 nM.

B30: H0610-G1dh/none-Hi-Kn010G3/L0206-k0 (antibody, human IgG1, kappa)
heavy: not shown
chain: B1 chain
light: B1 light with L29P, F94Y
notes: single-arm (one Fab)
The molecule B30 yielded a dissociation constant (Kd) of 0.865 nM.

B31: H0610-G1dh/none-Hi-Kn010G3/L0200-k0 (antibody, human IgG1, kappa)
heavy: not shown
chain: B1 chain
light: B1 light with S25P, L29P, F94G
notes: single-arm (one Fab)
For the molecule B31, the Kd is 1.04 nM.

B32: H0610-G1dh/none-Hi-Kn010G3/L0203-k0 (antibody, human IgG1, kappa)
heavy: not shown
chain: B1 chain
light: B1 light with L29P, L38I, F94G
notes: single-arm (one Fab)
In turn, B32 displayed a dissociation constant (Kd) of 2.11 nM.

B33: H0610-G1dh/none-Hi-Kn010G3/L0220-k0 (antibody, human IgG1, kappa)
heavy: not shown
chain: B1 chain
light: B1 light with S28P, S61R, F94Y
notes: single-arm (one Fab)
For the molecule B33, binding was put at a Kd of 1.36 nM.

B34: H0610-G1dh/none-Hi-Kn010G3/L0231-k0 (antibody, human IgG1, kappa)
heavy: not shown
chain: B1 chain
light: B1 light with L29P, L38I, F94Y, V99W
notes: single-arm (one Fab)
B34 had an equilibrium dissociation constant (Kd) of 0.589 nM.

B35: H0610-G1dh/none-Hi-Kn010G3/L0209-k0 (antibody, human IgG1, kappa)
heavy: not shown
chain: B1 chain
light: B1 light with L29P, L38I, F94Y
notes: single-arm (one Fab)
In the case of B35, the equilibrium dissociation constant (Kd) is 1.12 nM.

B36: H0610-G1dh/none-Hi-Kn010G3/L0157-k0 (antibody, human IgG1, kappa)
heavy: not shown
chain: B1 chain
light: B1 light with F94N
notes: single-arm (one Fab)
B36 registered a Kd of 2.6 nM.

B37: H0610-G1dh/none-Hi-Kn010G3/L0216-k0 (antibody, human IgG1, kappa)
heavy: not shown
chain: B1 chain
light: B1 light with S28P, S61R, F94G
notes: single-arm (one Fab)
B37: the dissociation constant (Kd) is 1.86 nM.

B38: H0610-G1dh/none-Hi-Kn010G3/L0226-k0 (antibody, human IgG1, kappa)
heavy: not shown
chain: B1 chain
light: B1 light with L29P, L38I, F94I
notes: single-arm (one Fab)
In the case of B38, binding was put at a Kd of 0.093 nM.

B39: H0610-G1dh/none-Hi-Kn010G3/L0205-k0 (antibody, human IgG1, kappa)
heavy: not shown
chain: B1 chain
light: B1 light with L29P, S61W, F94G
notes: single-arm (one Fab)
On to B39, for which binding was characterised by a dissociation constant (Kd) of 1.01 nM.

B40: H0610-G1dh/none-Hi-Kn010G3/L0213-k0 (antibody, human IgG1, kappa)
heavy: not shown
chain: B1 chain
light: B1 light with L29P, L38I, S61R, F94G
notes: single-arm (one Fab)
Molecule B40 came in with a Kd of 1.25 nM.

B41: H0610-G1dh/none-Hi-Kn010G3/L0181-k0 (antibody, human IgG1, kappa)
heavy: not shown
chain: B1 chain
light: B1 light with F94G, V99P
notes: single-arm (one Fab)
Molecule B41 had an equilibrium dissociation constant (Kd) of 3.51 nM.

B42: H0610-G1dh/none-Hi-Kn010G3/L0219-k0 (antibody, human IgG1, kappa)
heavy: not shown
chain: B1 chain
light: B1 light with L38I, S61R, F94G
notes: single-arm (one Fab)
Take B42: binding was characterised by a dissociation constant (Kd) of 2.28 nM.

B43: H0610-G1dh/none-Hi-Kn010G3/L0233-k0 (antibody, human IgG1, kappa)
heavy: not shown
chain: B1 chain
light: B1 light with S28E, F94G
notes: single-arm (one Fab)
In turn, B43 registered a Kd of 3.55 nM.

B44: H0610-G1dh/none-Hi-Kn010G3/L0163-k0 (antibody, human IgG1, kappa)
heavy: not shown
chain: B1 chain
light: B1 light with F94Y
notes: single-arm (one Fab)
Molecule B44 gave a Kd of 3.38 nM.

Broadly, the Kd is the constant that tells how readily two partners part at equilibrium.
